Paper PMC6034166

Target: ethylenediamine-N,N′-disuccinic acid lyase (EDDS lyase) from Chelativorans sp. BNC1 (Chelativorans sp. BNC1)
Experiment: SEC + other: dynamic light scattering

Work on “ethylenediamine-N,N′-disuccinic acid lyase (EDDS lyase) from Chelativorans sp. BNC1 (enzyme)” yielded a stoichiometry N of 4.
